Laboratory results published in US20260116987A1 (Gilead, published 2026).
Substitutions are numbered along the chain they refer to.

T1: Human CCR4 expressed on CHO-S cells (human, UniProt P51679 1-360)
T1 construct: whole, on cells; also called CCR4-expressing CHO-S cells
T1 sequence (looked up): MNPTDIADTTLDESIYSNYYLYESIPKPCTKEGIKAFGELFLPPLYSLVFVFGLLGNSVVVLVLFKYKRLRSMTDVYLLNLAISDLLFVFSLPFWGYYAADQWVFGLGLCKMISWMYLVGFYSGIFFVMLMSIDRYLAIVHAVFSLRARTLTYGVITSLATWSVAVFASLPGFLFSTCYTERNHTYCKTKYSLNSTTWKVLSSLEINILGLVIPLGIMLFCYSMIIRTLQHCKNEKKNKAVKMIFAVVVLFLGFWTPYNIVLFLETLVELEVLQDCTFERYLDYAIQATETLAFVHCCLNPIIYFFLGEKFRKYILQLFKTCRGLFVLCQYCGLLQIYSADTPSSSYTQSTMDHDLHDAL

B1: 7B16.010 (CDR H3 alanine scan variant of 7-B16) (antibody, human IgG1, kappa, V domains shown)
VH: EVQLVESGGGLVQPKGSLKLSCAASGFTFNTYAMNWVRQAPGKGLEWVARIRSKSNNYATYYADSVKDRFTISRDDSQSMLYLQMNNLKTEDTAMYYCVRGLLRYRAFDVWGAGTTVTVSS
VL: DIVMTQAEPSVPVTPGESISISCRSSKSLLHSNGNTYLYWFLQRPGQSPQLLIYRMSNLASGVPDRFSGSGSGTAFTLRISRVEAEDVGVYYCMQHLEYPFTFGGGTKLEIKR
B2: 7B16.013 (CDR H3 alanine scan variant of 7-B16) (antibody, human IgG1, kappa, V domains shown)
VH: B1 VH with A107F, V110A
VL: B1 VL
B3: 7B16-H2.001 (CDR H2 swapped mutant of 7-B16) (antibody, V domains shown)
VH: B1 VH with S55A, N57S, Y61A, D64A, A107F
VL: B1 VL
notes: also called CDR swapped variant H2
B4: 7B16-H3C2.001 (CDR H3 combo mutant of 7-B16) (antibody, V domains shown)
VH: B1 VH with V99A, A107F, V110A
VL: B1 VL
B5: 7B16-H3C1.001 (CDR H3 combo mutant of 7-B16) (antibody, V domains shown)
VH: B1 VH with V99A, Y105A, A107F
VL: B1 VL
B6: 7B16-H3C3.001 (CDR H3 combo mutant of 7-B16) (antibody, V domains shown)
VH: B1 VH with Y105A, A107F, V110A
VL: B1 VL
B7: 7B16-H3C4.001 (CDR H3 combo mutant of 7-B16) (antibody, V domains shown)
VH: B1 VH with V99A, Y105A, A107F, V110A
VL: B1 VL
B8: 7B16-L2.001 (CDR L2 swapped mutant of 7-B16) (antibody, V domains shown)
VH: B1 VH with A107F
VL: B1 VL with R55L, M56G, L59R
notes: also called CDR swapped variant L2
B9: 6-B09 (mouse hybridoma antibody) (antibody, mouse IgG2a, kappa)
heavy: QVQLKESGPGLVAPSQSLSITCTVSGFSLARYDISWIRQPPGKGLEWLGVIWTGGGTNYNSAFMSRLSISKDNSKSQVFLKMNGLQTDDTAIYYCVSIRYDETYWGQGTLVTVSAAKTTAPSVYPLAPVCGDTTGSSVTLGCLVKGYFPEPVTLTWNSGSLSSGVHTFPAVLQSDLYTLSSSVTVTSSTWPSQSITCNVAHPASSTKVDKKIEPRGPTIKPCPPCKCPAPNLLGGPSVFIFPPKIKDVLMISLSPIVTCVVVDVSEDDPDVQISWFVNNVEVHTAQTQTHREDYNSTLRVVSALPIQHQDWMSGKEFKCKVNNKDLPAPIERTISKPKGSVRAPQVYVLPPPEEEMTKKQVTLTCMVTDFMPEDIYVEWTNNGKTELNYKNTEPVLDSDGSYFMYSKLRVEKKNWVERNSYSCSVVHEGLHNHHTTKSFSRTPG
light: QIVLTQSPAIMSASPGEKVTITCSASSSVIYMHWFQQKPGTSPKLWIYATSNLASGVPARFSGSGSGTSYSLTISRMEAEDAATYYCQQRSSYPLTFGAGTKLELKRADAAPTVSIFPPSSEQLTSGGASVVCFLNNFYPKDINVKWKIDGSERQNGVLNSWTDQDSKDSTYSMSSTLTLTKDEYERHNSYTCEATHKTSTSPIVKSFNRNEC
B10: 13-E16 (mouse hybridoma antibody) (antibody, mouse IgG2a, kappa)
heavy: EVQLVETGGGLVQPKGSLKLSCAASGFTFSTNAMNWVRQAPGKGLEWIARIRSKSNNYATHYADSVKDRFTISRDDSQSILHLQMNNLKNEDTAMYYCVRDSHYYVSTYVGLAWFAYWGQGTLVTVSAAKTTAPSVYPLAPVCGDTTGSSVTLGCLVKGYFPEPVTLTWNSGSLSSGVHTFPAVLQSDLYTLSSSVTVTSSTWPSQSITCNVAHPASSTKVDKKIEPRGPTIKPCPPCKCPAPNLLGGPSVFIFPPKIKDVLMISLSPIVTCVVVDVSEDDPDVQISWFVNNVEVHTAQTQTHREDYNSTLRVVSALPIQHQDWMSGKEFKCKVNNKDLPAPIERTISKPKGSVRAPQVYVLPPPEEEMTKKQVTLTCMVTDFMPEDIYVEWTNNGKTELNYKNTEPVLDSDGSYFMYSKLRVEKKNWVERNSYSCSVVHEGLHNHHTTKSFSRTPG
light: B9 light with I30S, A49S, S71F, L95Y, A99G, L105R
B11: 19-O07 (mouse hybridoma antibody) (antibody, human IgG1)
heavy: EVQLQQSVAELVRPGASVKLSCTASGFNIKNTQMHWVKQRPEQGLEWIGRIDPANGNTKYAPKFQGKATITGDTSSNTAYLQLSSLTSEDTAIYYCARFDYYYGSGDYAMDYWGQGTSVTVSSTTTAPSVYPLVPGCSDTSGSSVTLGCLVKGYFPEPVTVKWNYGALSSGVRTVSSVLQSGFYSLSSLVTVPSSTWPSQTVICNVAHPASKTELIKRIEPRIPKPSTPPGSSCPPGNILGGPSVFIFPPKPKDALMISLTPKVTCVVVDVSEDDPDVHVSWFVDNKEVHTAWTQPREAQYNSTFRVVSALPIQHQDWMRGKEFKCKVNNKALPAPIERTISKPKGRAQTPQVYTIPPPREQMSKKKVSLTCLVTNFFSEAISVEWERNGELEQDYKNTPPILDSDGTYFLYSKLTVDTDSWLQGEIFTCSVVHEALHNHHTQKNLSRSP
light: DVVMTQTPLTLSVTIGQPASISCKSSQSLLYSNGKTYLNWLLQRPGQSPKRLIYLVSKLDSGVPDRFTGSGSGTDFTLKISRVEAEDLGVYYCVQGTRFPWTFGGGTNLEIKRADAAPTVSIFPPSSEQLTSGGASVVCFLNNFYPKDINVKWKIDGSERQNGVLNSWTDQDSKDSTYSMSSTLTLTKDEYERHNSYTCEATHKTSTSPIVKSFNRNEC
notes: also called 19-007
B12: 1-K16 (mouse hybridoma antibody) (antibody, mouse IgG1, kappa)
heavy: EVQLVETGGGLVQPKGSLKLSCAASGFTFNINAMNWVRQAPGKGLEWVARIRSKSNNYATYYADSVKDRFTISRDDSQSMLYLQMNNLKTEDTAMYYCVRGGYGSSPYDMDYWGQGTSVTVSSAKTTPPSVYPLAPGSAAQTNSMVTLGCLVKGYFPEPVTVTWNSGSLSSGVHTFPAVLESDLYTLSSSVTVPSSPRPSETVTCNVAHPASSTKVDKKIVPRDCGCKPCICTVPEVSSVFIFPPKPKDVLTITLTPKVTCVVVDISKDDPEVQFSWFVDDVEVHTAQTQPREEQFNSTFRSVSELPIMHQDWLNGKEFKCRVNSAAFPAPIEKTISKTKGRPKAPQVYTIPPPKEQMAKDKVSLTCMITDFFPEDITVEWQWNGQPAENYKNTQPIMNTNGSYFVYSKLNVQKSNWEAGNTFTCSVLHEGLHNHHTEKSLSHSPG
light: DIVMTQAAPSVPVTPGESVSISCRSSKSLLHSNGNTYLYWFLQRPGQSPQLLIYRMSNLASGVPDRFSGSGSGTAFTLRISRVEAEDVGVYYCMQHLEYPFTFGAGTKLELKRADAAPTVSIFPPSSEQLTSGGASVVCFLNNFYPKDINVKWKIDGSERQNGVLNSWTDQDSKDSTYSMSSTLTLTKDEYERHNSYTCEATHKTSTSPIVKSFNRNEC
B13: 1-K17 (mouse hybridoma antibody) (antibody, mouse IgG1, kappa)
heavy: QVQLQQPGAELVKPGASVKMSCKASGYTFTSYNMHWVKQTPGQGLEWIGAIYPGNGDTSYNQKFKGKATLTADKSSSTAYMHLSSLTSEDSAVYYCARKGGTPFAYWGQGTLLTVSAAKTTPPSVYPLAPGSAAQTNSMVTLGCLVKGYFPEPVTVTWNSGSLSSGVHTFPAVLESDLYTLSSSVTVPSSPRPSETVTCNVAHPASSTKVDKKIVPRDCGCKPCICTVPEVSSVFIFPPKPKDVLTITLTPKVTCVVVDISKDDPEVQFSWFVDDVEVHTAQTQPREEQFNSTFRSVSELPIMHQDWLNGKEFKCRVNSAAFPAPIEKTISKTKGRPKAPQVYTIPPPKEQMAKDKVSLTCMITDFFPEDITVEWQWNGQPAENYKNTQPIMNTNGSYFVYSKLNVQKSNWEAGNTFTCSVLHEGLHNHHTEKSLSHSPG
light: DVVMTQTPLSLPVSLGDQASISCRSSQSLVHSNGNTYLYWYLQKPGQSPKLLIYKVSNRFSGVPDRFSGSGSGTDFTLKISRVEAEDLGVYFCSQSTHVPYTFGGGTKLEIKRADAAPTVSIFPPSSEQLTSGGASVVCFLNNFYPKDINVKWKIDGSERQNGVLNSWTDQDSKDSTYSMSSTLTLTKDEYERHNSYTCEATHKTSTSPIVKSFNRNEC

Each binder was assayed against T2, Human CCR8 (C-C chemokine receptor type 8) expressed on CHO-S cells (human, UniProt P51685 1-355) (assay: cell-based or functional assay).
T2 sequence (P51685 whole entry): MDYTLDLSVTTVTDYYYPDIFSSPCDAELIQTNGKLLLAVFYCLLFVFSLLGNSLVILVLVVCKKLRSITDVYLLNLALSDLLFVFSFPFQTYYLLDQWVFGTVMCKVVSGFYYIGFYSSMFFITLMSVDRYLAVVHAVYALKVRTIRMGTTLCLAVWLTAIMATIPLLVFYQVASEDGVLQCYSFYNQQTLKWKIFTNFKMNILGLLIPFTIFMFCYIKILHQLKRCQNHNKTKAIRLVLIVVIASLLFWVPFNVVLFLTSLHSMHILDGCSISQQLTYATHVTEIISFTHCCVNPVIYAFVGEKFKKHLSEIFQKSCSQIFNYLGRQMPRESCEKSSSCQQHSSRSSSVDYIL

In order of rising “ADCC (Fold Induction)” value:
1. B1  1.36 fold
2. B2  25.9 fold

Each binder was assayed against T3, CCR8-NT.MBP (CCR8 N-terminus peptide aa 1-35 fused with maltose binding protein) (assay: ForteBio Octet, antibody captured on AHC biosensors, CCR8-NT.MBP as analyte).

In order of falling “Octet Response (nm)” value:
1. B5  0.431 nm
2. B7  0.404 nm
3. B6  0.376 nm
4. B4  0.357 nm
5. B3  0.299 nm
6. B8  0.205 nm

The binders below were run against T3, CCR8-NT.MBP (CCR8 N-terminus peptide aa …) (assay: ForteBio Octet, antibody at 10 µg/ml captured on AHC biosensors, 300 nM CCR8-NT.MBP as analyte).
Excerpt: (amino acids 406-440 of SEQ ID NO: 128), Amino acids 1-364 of SEQ ID NO: 128 represent the maltose binding protein.

In order of rising “Octet (nm shift)” value:
1. B1  0.155 nm
2. B2  0.383 nm

These binders were tested against T1, Human CCR4 expressed on CHO-S cells (assay: flow cytometry (PE-A), human CCR4-expressing CHO-S cells against parental CHO-S cells; antibody concentration not given).

B9: no binding.
B10: no binding.
B11: no binding.
B12: no binding.
B13: no binding.

These binders were tested against T2, Human CCR8 (C-C chemokine receptor type …) (assay: flow cytometry, human CCR8-overexpressing against parental CHO-S cells).
Experimental: The first category of variant (single substitution mutation in the CDR H3) included variants in which each amino acid residue of the heavy chain CDR 3 (i.e., , CDR H3) was iteratively substituted with an alanine residue.
CCR8 binding was determined using flow cytometry according to the same methods used in Example 4, Briefly, antibodies were screened for specific binding to human CCR8 by flow cytometry using human CCR8-overexpressing and parental CHO—S cell line. Antibodies specifically binding to human CCR8 were also tested for binding to CCR4 by flow cytometry.

In order of rising “Flow (fold over parent)” value:
1. B1  4 fold
2. B2  9 fold
